We go through 1 substance from patent publication US20210188994A1.

The target of this test is His-tagged FcγRIIIa recombinant protein (UniProt P08637). The test can be described thus: SPR (BIACORE X100), His-tagged FcγRIIIa captured on anti-His CM5 chip, antibody as analyte, 1:1 Langmuir fit. For orientation: In SPR one partner is held on a chip, and binding of the other changes the refractive index at the surface.

pKd: −log10 of the molar value.

Chain of UniProt P08637 (P08637 17-208 limits assumed): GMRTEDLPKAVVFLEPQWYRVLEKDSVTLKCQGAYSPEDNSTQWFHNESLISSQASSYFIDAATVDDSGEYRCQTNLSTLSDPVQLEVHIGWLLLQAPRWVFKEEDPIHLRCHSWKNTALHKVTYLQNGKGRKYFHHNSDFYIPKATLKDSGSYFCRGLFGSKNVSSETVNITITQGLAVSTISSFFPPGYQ

“GAZYVA (obinutuzumab), commercial afucosylated anti-CD20 antibody”: the negative logarithm of the Kd (pKd) (in general, −log10 of the Kd, conventionally taken in molar units) is 7.40; the koff (commonly a measure of how fast the partners let go of each other) is 0.0069 s⁻¹; the kon (usually the second-order rate constant of association) was found to be 173000 M⁻¹ s⁻¹.
